Data on 3 molecules can be found in US6307026, “Humanized antibodies directed against A33 antigen” (Celltech Limited, dated 2001).

Test [1] deals with T1, A33 antigen (human, UniProt Q99795).
T1 sequence: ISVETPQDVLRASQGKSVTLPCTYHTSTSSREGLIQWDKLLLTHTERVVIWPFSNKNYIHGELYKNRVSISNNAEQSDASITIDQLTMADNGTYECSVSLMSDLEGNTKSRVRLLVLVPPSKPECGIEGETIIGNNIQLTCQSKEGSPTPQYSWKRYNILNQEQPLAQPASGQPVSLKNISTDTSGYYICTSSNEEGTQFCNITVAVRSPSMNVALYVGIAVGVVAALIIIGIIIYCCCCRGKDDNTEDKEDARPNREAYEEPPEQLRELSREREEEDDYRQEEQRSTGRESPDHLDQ
In words: direct binding to ASPC-1 cells, FITC labelled anti-human IgG, FACScan. The method, then:
In the direct binding assay ASPC-1 or Colo205 cells were incubated at […] for 1 h. in the presence of various amounts of murine, chimeric or humanised A33, or non-specific antibody controls.
To confirm that the sequences obtained could combine to bind to the A33 antigen the chimeric expression plasmids pRO107 and pRO108 were transiently co-expressed in CHO-L761h cells (Cockett et al., 1990) at 200 mL scale. […] The binding of the antibody to the cells was measured using FITC labelled anti-human IgG and the bound fluorescence was detected in a FACScan analyser.

Test [2] concerns the target T1, A33 antigen. In words: competition assays of Example 1 (FITC-labelled murine A33 on cells, FACScan); reference.
The target in test [3] is T1, A33 antigen. In words: fluorescein-labelled antibody titrated on SW1222 cells, FACScan, Scatchard plot. The method, then:
The potency of hA33 (γ1) was compared to that of murine A33 by binding to cells of the human colerectal cancer cell line SW 1222. Fluorescently labelled conjugates of purified humanised and murine A33 were prepared to give approximately 1.5 molecules of fluorescein per antibody molecule. SW1222 cells (2.8×10⁵ per tube) were incubated with the fluorescent antibodies titrated in the range 3.57 µg/ml to 12 ng/ml in PBS with 5% foetal calf serum and 0.2% sodium azide on ice for 1.5 hours. After washing, antibody bound to the surface of the cells was detected by a FACscan (Becton Dickinson) as a fluorescent signal which was converted to numbers of antibody molecules bound per cell by calibration with fluorescent microbead standards.

B1: chimeric A33(γ1) (antibody, V domains shown)
VH: EVKLVESGGGLVKPGGSLKLSCAASGFAFSTYDMSWVRQTPEKRLEWVATISSGGSYTYYLDSVKGRFTISRDSARNTLYLQMSSLRSEDTALYYCAPTTVVPFAYWGQGTLVTVSA
VL: DIVMTQSQKFMSTSVGDRVSITCKASQNVRTVVAWYQQKPGQSPKTLIYLASNRHTGVPDRFTGSGSGTDFTLTISNVQSEDLADYFCLQHWSYPLTFGSGTKLEVKR
For the molecule B1, in test [1], the binding result is recorded as “binds”.

B2: mA33 Fab (Fab, V domains shown)
VH: B1 VH
VL: B1 VL
Consider B2, for which the binding result in test [2] is on record as “binds”.

B3: murine monoclonal antibody A33 (antibody, V domains shown)
VH: B1 VH
VL: B1 VL
modifications: FITC or fluorescein label on the antibody where it is used as labelled competitor or in the Scatchard assay (about 1.5 molecules of fluorescein per antibody molecule)
For the molecule B3, in test [3], the binding result was “binds”.
